Experiment in all cases: fluorescence polarisation; FAM-labelled peptide with GST-tagged domains or MBP-tagged full-length UHRF1; as described in ref. 4, plotted as change in anisotropy
Details in all cases: both partners purified
On the technique in general: Polarisation of emitted light reports the rotation of a fluorescent probe.

For experiment [1], the target named is T1, GST-tagged UHRF1 tandem Tudor domain (TTD, a.a. 125–285) ( (printed UniProt entry is …, UniProt Q96T88 125-285)).
T1 construct: also called UHRF1 TTD; source: recombinant GST fusion
T1 sequence (looked up): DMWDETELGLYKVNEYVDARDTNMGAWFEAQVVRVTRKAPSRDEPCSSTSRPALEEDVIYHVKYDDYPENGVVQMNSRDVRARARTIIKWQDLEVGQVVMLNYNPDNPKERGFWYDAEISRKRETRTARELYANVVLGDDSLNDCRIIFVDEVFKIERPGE

For experiment [2], the target named is T2, UHRF1 full-length (a.a. 1–793), MBP fusion ( (printed UniProt entry is …, UniProt Q96T88 1-793)).
T2 construct: also called recombinant full-length UHRF1; full-length UHRF1; not shown: MBP, N-terminal, kept
T2 sequence (looked up): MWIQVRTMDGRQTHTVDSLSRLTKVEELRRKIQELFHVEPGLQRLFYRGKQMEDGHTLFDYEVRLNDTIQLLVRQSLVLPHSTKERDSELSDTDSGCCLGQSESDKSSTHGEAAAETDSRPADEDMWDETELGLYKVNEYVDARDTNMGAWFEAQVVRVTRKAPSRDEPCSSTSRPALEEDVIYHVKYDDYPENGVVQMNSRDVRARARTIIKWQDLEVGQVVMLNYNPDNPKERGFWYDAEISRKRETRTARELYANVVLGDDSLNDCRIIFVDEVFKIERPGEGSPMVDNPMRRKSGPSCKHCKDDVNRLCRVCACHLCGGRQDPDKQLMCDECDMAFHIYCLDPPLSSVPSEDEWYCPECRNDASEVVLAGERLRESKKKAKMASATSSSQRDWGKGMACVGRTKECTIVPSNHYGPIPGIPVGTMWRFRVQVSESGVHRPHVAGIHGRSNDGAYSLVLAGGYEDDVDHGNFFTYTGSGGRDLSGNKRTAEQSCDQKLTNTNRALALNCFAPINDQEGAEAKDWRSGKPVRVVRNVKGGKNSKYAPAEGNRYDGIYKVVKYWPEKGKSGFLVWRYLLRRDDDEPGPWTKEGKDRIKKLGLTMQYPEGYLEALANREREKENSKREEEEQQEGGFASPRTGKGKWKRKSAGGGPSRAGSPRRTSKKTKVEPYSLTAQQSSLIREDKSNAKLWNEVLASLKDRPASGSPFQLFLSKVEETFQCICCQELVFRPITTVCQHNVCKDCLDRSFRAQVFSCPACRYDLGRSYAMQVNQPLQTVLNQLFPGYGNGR

Experiment [3] deals with T3, GST-tagged UHRF1 TTD–PHD S298E ( (printed UniProt entry is …, UniProt Q96T88 125-364, S298E)).
T3 construct: also called phospho-mimetic mutation in L2; source: recombinant GST fusion
T3 sequence (looked up): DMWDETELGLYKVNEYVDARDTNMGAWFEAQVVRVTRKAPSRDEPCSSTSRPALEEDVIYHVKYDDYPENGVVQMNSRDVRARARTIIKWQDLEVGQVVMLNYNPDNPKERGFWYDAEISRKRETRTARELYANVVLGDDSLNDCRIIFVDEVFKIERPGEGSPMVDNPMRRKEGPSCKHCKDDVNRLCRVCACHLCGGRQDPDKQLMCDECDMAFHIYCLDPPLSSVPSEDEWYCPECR

The target in experiment [4] is T4, GST-tagged UHRF1 TTD–PHD R295A/R296A ( (printed UniProt entry is …, UniProt Q96T88 125-364, R295A | R296A)).
T4 construct: also called mutation of L2 (R295A/R296A); TTD–PHD mutant; source: recombinant GST fusion
T4 sequence (looked up): T3 sequence (looked up) with R171A, R172A, E174S

Changes are numbered by the printed parent chain. Where no end group is shown, it is not given here.

B1: FAM-LIG1(118–130)K126me2 peptide (peptide)
peptide: {FAM}-IPKRRTARK(Me2)QLPK
modifications: not fully specified (C-terminus); printed as FAM-LIG1(118–130)K126me2 peptide
notes: DNA ligase 1 (LIG1), residues 118-130; also called FAM-LIG1K126me2; LIG1K126me2 peptide; source: bought: GenScript (synthetic peptide)
What is called Kd is the constant that tells how readily two partners part at equilibrium. A higher Kd goes with a looser complex. With B1, the Kd in experiment [1] was 30 to 80 nM; in experiment [2], 41 nM. The binding result in experiment [3] and in experiment [4] was “binds” throughout.

The values are drawn from article PMC7585203 (Epigenetics & Chromatin, 2020).
